Where two headings read alike, the source gives them in different places.
Legend:
[1] = target: T1, human Sirpα-V1-his (human, UniProt P78324 31-373); assay: ELISA
T1 construct: range 31-373; Bought (Sino Biological 11612-H08H) or expressed in-house; also called hSirpα-V1; hSirpα-V1-his

[2] = target: human Sirpα-V2-his (human); assay: ELISA EC50 against Ref2
Method: (§1) Different antigens (recombinant proteins) such as the human Sirpα-V1-hFc, Sirpα-V1-his, Sirpα-V2-his, Sirpβ-his, Sirpγ-his, monkey Sirpα-his (cynoSirpα-his) or NOD-mSirpα-his described in Example 1 were diluted with a PBS buffer at pH7.4 to concentrations of 1 μg/mL, 2 μg/mL or 5 μg/mL, added into a 96-well ELISA plate (Corning, CLS3590-100EA) at a volume of 50 μL/well, and placed in an incubator at 37° C. for 2 hours. After the liquid was discarded, the wells were added with a blocking solution of 5% skimmed milk (skimmed milk powder available from Bright Dairy) diluted with PBS at 230 μL/well, and incubated in an incubator at 37° C. for 3 hours, or placed overnight at 4° C. (for 16-18 hours) for blocking. […] The plated was washed with PBST for 5 times, then added with 50 μL/well of TMB chromogenic substrate (KPL, Cat #: 52-00-03), incubated at room temperature for 10-15 min, added with 50 μL/well of 1 M H₂SO₄ to stop the reaction, and read by a […] Go microplate reader (ThermoFisher, Cat #: 51119200) for the absorbance value at 450 nm, and then a clone with high binding activity was selected or a EC₅₀ value was calculated according to the OD value.

[3] = target: T1, human Sirpα-V1-his; assay: ELISA EC50 against Ref2
Method: as §1

[4] = target: T1, human Sirpα-V1-his; assay: blocking ELISA, competitor CD47-hFc
Method: (§2) The recombinant proteins such as human Sirpα-V1-hFc/Sirpα-V1-his were diluted to concentrations of 5 μg/mL or 2 μg/mL respectively with a PBS buffer at pH 7.4, and then added into a 96-well ELISA plate (Corning, CLS3590-100EA) at a volume of 50 μL/well, and placed in an incubator at 37° C. for 2 hours. After the liquid was discarded, the wells were added with a blocking solution of 5% skimmed milk (skimmed milk powder available from Bright Dairy) diluted with PBS at 230 μL/well, and incubated in an incubator at 37° C. for 3 hours, or placed overnight at 4° C. (for 16-18 hours) for blocking. […] The plate was washed for 5 times, added with 50 μL/well of streptavidin-HRP (GenScript, M00091) or anti-his-HRP secondary antibody (GenScript, A00612) diluted at 1:1000, incubated at 37° C. for 1 hour, and then washed with PBST for 5 times. Each well was added with 50 μL of TMB (Surmodic, Cat #: TTMB-1000-01) for color development, and added with 50 μL/well of 1 M H₂SO₄ to stop the reaction. The readings on a microplate reader (MultiskanGO Thermo, Model 51119200) were subjected to data analysis by GraphPad prism 5.

[5] = target: T1, human Sirpα-V1-his; assay: blocking ELISA, competitor CD47-hFc; remark: listed apart in the source
Method: as §2

[6] = target: human Sirpα-V2-his (human); assay: blocking ELISA, competitor CD47-hFc
Method: (§3) Specifically, the recombinant protein of human Sirpα-V2-his was diluted to a concentration of 2 μg/mL with a PBS buffer at pH7.4, then added into a 96-well ELISA plate (Corning, CLS3590-100EA) at a volume of 50 μL/well, and placed in an incubator at 37° C. for 2 hours. After the liquid was discarded, the wells were added with a blocking solution of 5% skimmed milk (skimmed milk powder available from Bright Dairy) diluted with PBS at 230 μL/well, and incubated in an incubator at 37° C. for 3 hours, or placed overnight at 4° C. (for 16-18 hours) for blocking. […] The plate was washed for 5 times, added with 50 μL/well of a streptavidin-HRP secondary antibody (GenScript, M00091) diluted at 1:1000, incubated at 37° C. for 1 hour, and then washed with PBST for 5 times. Each well was added with 50 μL TMB (Surmodic, Cat #TTMB-1000-01) for color development, and added with 50 μL/well of 1 M H₂SO₄ to stop the reaction. The readings on a microplate reader (MultiskanGO Thermo, Model: 51119200) were subjected to data analysis by GraphPad prism 5.

[7] = target: human Sirpα-V2-his (human); assay: blocking ELISA, competitor CD47-his
Method: as §3

[8] = target: T2, human Sirpα-V1-hFc (human, UniProt P78324 31-373); assay: blocking ELISA, competitor CD47-his
T2 construct: range 31-373; also called hSirpα (dimer); hSirpα-V1-hFc (dimer); not shown: human IgG1 Fc region at the C-terminus
Method: The antigens PD-1 and Sirpα expressed according to the method of Example 1 were diluted with a PBS buffer at pH7.4 to a concentration of 2 μg/mL, added into a 96-well ELISA plate (Corning, CLS3590-100EA) at a volume of 50 μL/well, and incubated at 37° C. for 2 hours. After the liquid was discarded, the wells were added with a blocking solution of 5% skimmed milk (Sangon Biotech (Shanghai) Co., Ltd., A600669-0250) formulated with PBS at 200 μL/well, and incubated at 37° C. for 3 hours for blocking. […] The plate was washed with PBST for 5 times, added with 50 μL/well of HRP-labeled secondary antibody (GenScript Biotechnology Co., Ltd., M00091) diluted at 1:1000, and incubated at 37° C. for 1 hour. The plated was washed with PBST for 5 times, then added with 50 μl/well of TMB chromogenic substrate (KPL, 52-00-03), incubated at room temperature for 5-10 min, added with 50 μl/well of 1 M H₂SO₄ to stop the reaction, and read by a […] Go microplate reader (ThermoFisher, 51119200) for the absorbance value at 450 nm, and then IC₅₀ was calculated according to the OD value.

human Sirpα-V2-his (human), sequence (chain, as listed by the source): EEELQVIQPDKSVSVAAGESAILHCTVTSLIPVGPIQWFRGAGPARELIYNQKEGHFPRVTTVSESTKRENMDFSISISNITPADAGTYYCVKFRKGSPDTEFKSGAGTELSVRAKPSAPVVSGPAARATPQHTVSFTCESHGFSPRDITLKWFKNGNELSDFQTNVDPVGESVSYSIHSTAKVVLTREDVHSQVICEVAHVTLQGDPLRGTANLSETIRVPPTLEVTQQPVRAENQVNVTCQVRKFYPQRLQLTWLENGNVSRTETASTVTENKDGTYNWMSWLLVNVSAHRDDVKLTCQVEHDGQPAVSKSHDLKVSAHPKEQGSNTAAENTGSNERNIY

EC50 [1]: 0.087 nM | fold stronger binding than Ref2 [2]: 2.9 fold | fold stronger binding than Ref2 [3]: 1.4 fold | IC50 [4]: 10.1 nM | IC50 [5]: 5.28 nM | IC50 [6]: 6.29 nM | IC50 [7]: 2.39 nM | IC50 [8]: 3.88 nM
B1: humanized antibody mab14-h16 (antibody, human IgG4 S228P, kappa, V domains shown)
VH: QVQLVQSGAEVKKPGASVKVSCKASGYNFNIYWINWVRQAPGQGLEWIGNIYPSSISTNYNEKFKTRATLTVDKSTSTVYMELSSLRSEDTAVYYCARSEGTYYGGRYEGDWFGYWGQGTLVTVSS
VL: DIQMTQSPSSLSASVGDRVTITCRASQDIRNYLNWYQQKPGKAPKLLIYFTSTLHSGVPSRFSGSGSGTDFTLTISSLQPEDFATYYCQQGNTLPWTFGGGTKVEIKR
notes: hIgG4, κ
